Results reported in patent US20110151454.

How the values were obtained:
[1] = molecular target: HA-SKP2 phosphorylated in vitro by AKT (32P-SKP2), Q13309
[2] = molecular target: HA-tagged p27 phosphorylated at T187 by CDK2/cyclinA, P46527
[3] = molecular target: p27 T187 phospho-peptide
[4] = molecular target: SKP2 S75 phospho-peptide
[5] = molecular target: p27 S10 phospho-peptide
[6] = molecular target: SKP2 S72 phospho-peptide
[7] = molecular target: SKP2 S64 phospho-peptide
[8] = molecular target: p27 T157 phospho-peptide

Chain of HA-tagged p27 phosphorylated at T187 by CDK2/cyclinA, P46527 (P46527 whole entry, looked up): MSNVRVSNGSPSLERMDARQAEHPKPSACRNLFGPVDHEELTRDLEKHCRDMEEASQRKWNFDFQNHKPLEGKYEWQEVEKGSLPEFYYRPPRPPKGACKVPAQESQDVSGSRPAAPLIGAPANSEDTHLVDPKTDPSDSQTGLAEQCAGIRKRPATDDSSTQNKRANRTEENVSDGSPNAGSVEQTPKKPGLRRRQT
Chain of HA-SKP2 phosphorylated in vitro by AKT (32P-SKP2), Q13309 (Q13309 whole entry, looked up): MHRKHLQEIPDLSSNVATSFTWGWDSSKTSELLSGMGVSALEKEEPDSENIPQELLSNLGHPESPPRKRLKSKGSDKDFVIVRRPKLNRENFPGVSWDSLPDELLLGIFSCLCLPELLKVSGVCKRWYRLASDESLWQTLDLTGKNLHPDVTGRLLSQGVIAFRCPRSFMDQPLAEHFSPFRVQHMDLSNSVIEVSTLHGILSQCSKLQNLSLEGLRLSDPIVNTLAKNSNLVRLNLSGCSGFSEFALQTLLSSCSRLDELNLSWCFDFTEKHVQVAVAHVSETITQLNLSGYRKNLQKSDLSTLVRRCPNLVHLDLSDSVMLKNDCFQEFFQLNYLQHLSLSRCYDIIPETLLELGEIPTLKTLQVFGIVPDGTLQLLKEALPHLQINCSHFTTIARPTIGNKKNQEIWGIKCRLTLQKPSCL

B1: λ-phosphatase (protein)
chain: MRYYEKIDGSKYRNIWVVGDLHGCYTNLMNKLDTIGFDNKKDLLISVGDLVDRGAENVECLELITFPWFRAVRGNHEQMMIDGLSERGNVNHWLLNGGGWFFNLDYDKEILAKALAHKADELPLIIELVSKDKKYVICHADYPFDEYEFGKPVDHQQVIWNRERISNSQNGIVKEIKGADTFIFGHTPAVKPLKFANQMYIDTGAVFCGNLTLIQVQGEGA
[1]
  removal of 32P from AKT-phosphorylated SKP2: γ-phosphatase was able to dephosphorylate SKP2

B2: gst-PPM1H (protein)
chain: MLTRVKSAVANFMGGIMAGSSGSEHGGGSCGGSDLPLRFPYGRPEFLGLSQDEVECSADHIARPILILKETRRLPWATGYAEVINAGKSTHNEDQASCEVLTVKKKAGAVTSTPNRNSSKRRSSLPNGEGLQLKENSESEGVSCHYWSLFDGHAGSGAAVVASRLLQHHITEQLQDIVDILKNSAVLPPTCLGEEPENTPANSRTLTRAASLRGGVGAPGSPSTPPTRFFTEKKIPHECLVIGALESAFKEMDLQIERERSSYNISGGCTALIVICLLGKLYVANAGDSRAIIIRNGEIIPMSSEFTPETERQRLQYLAFMQPHLLGNEFTHLEFPRRVQRKELGKKMLYRDFNMTGWAYKTIEDEDLKFPLIYGEGKKARVMATIGVTRGLGDHDLKVHDSNIYIKPFLSSAPEVRIYDLSKYDHGSDDVLILATDGLWDVLSNEEVAEAITQFLPNCDPDDPHRYTLAAQDLVMRARGVLKDRGWRISNDRLGSGDDISVYVIPLIHGNKLS
[2]
  dephosphorylation of p27 at S10 (phosphatase reaction, Western blot): Neither enzyme exhibited activity at S10
  dephosphorylation of p27 at T187 (phosphatase reaction, Western blot): only PPM1H was effective at dephosphorylating p27 at T187

B3: flag-PPM1H (protein)
chain: MLTRVKSAVANFMGGIMAGSSGSEHGGGSCGGSDLPLRFPYGRPEFLGLSQDEVECSADHIARPILILKETRRLPWATGYAEVINAGKSTHNEDQASCEVLTVKKKAGAVTSTPNRNSSKRRSSLPNGEGLQLKENSESEGVSCHYWSLFDGHAGSGAAVVASRLLQHHITEQLQDIVDILKNSAVLPPTCLGEEPENTPANSRTLTRAASLRGGVGAPGSPSTPPTRFFTEKKIPHECLVIGALESAFKEMDLQIERERSSYNISGGCTALIVICLLGKLYVANAGDSRAIIIRNGEIIPMSSEFTPETERQRLQYLAFMQPHLLGNEFTHLEFPRRVQRKELGKKMLYRDFNMTGWAYKTIEDEDLKFPLIYGEGKKARVMATIGVTRGLGDHDLKVHDSNIYIKPFLSSAPEVRIYDLSKYDHGSDDVLILATDGLWDVLSNEEVAEAITQFLPNCDPDDPHRYTLAAQDLVMRARGVLKDRGWRISNDRLGSGDDISVYVIPLIHGNKLS
[3]
  phosphate release from synthetic phospho-peptide (Pi ColorLock Gold assay): Liberation of phosphate was observed with the p27 peptides, most notably with the T187 peptide
[1]
  removal of 32P from AKT-phosphorylated SKP2: PPM1H lacked activity
[4]
  phosphate release from synthetic phospho-peptide (Pi ColorLock Gold assay): No evidence for PPM1H mediated dephosphorylation of the SKP2 phospho-peptides was observed
[5]
  phosphate release from synthetic phospho-peptide (Pi ColorLock Gold assay): Liberation of phosphate was observed with the p27 peptides, most notably with the T187 peptide
[6]
  phosphate release from synthetic phospho-peptide (Pi ColorLock Gold assay): No evidence for PPM1H mediated dephosphorylation of the SKP2 phospho-peptides was observed
[2]
  dephosphorylation of p27 at S10 (phosphatase reaction, Western blot): PPM1H exhibited no activity at the S10 site in this assay
  dephosphorylation of p27 at T187 (phosphatase reaction, Western blot): Wildtype PPM1H but not PPM1H-H153L dephosphorylated p27 at T187
[7]
  phosphate release from synthetic phospho-peptide (Pi ColorLock Gold assay): No evidence for PPM1H mediated dephosphorylation of the SKP2 phospho-peptides was observed
[8]
  phosphate release from synthetic phospho-peptide (Pi ColorLock Gold assay): Liberation of phosphate was observed with the p27 peptides, most notably with the T187 peptide

B4: flag-PPM1H-H153L (protein)
chain: MLTRVKSAVANFMGGIMAGSSGSEHGGGSCGGSDLPLRFPYGRPEFLGLSQDEVECSADHIARPILILKETRRLPWATGYAEVINAGKSTHNEDQASCEVLTVKKKAGAVTSTPNRNSSKRRSSLPNGEGLQLKENSESEGVSCHYWSLFDGLAGSGAAVVASRLLQHHITEQLQDIVDILKNSAVLPPTCLGEEPENTPANSRTLTRAASLRGGVGAPGSPSTPPTRFFTEKKIPHECLVIGALESAFKEMDLQIERERSSYNISGGCTALIVICLLGKLYVANAGDSRAIIIRNGEIIPMSSEFTPETERQRLQYLAFMQPHLLGNEFTHLEFPRRVQRKELGKKMLYRDFNMTGWAYKTIEDEDLKFPLIYGEGKKARVMATIGVTRGLGDHDLKVHDSNIYIKPFLSSAPEVRIYDLSKYDHGSDDVLILATDGLWDVLSNEEVAEAITQFLPNCDPDDPHRYTLAAQDLVMRARGVLKDRGWRISNDRLGSGDDISVYVIPLIHGNKLS
[2]
  dephosphorylation of p27 at T187 (phosphatase reaction, Western blot): Wildtype PPM1H but not PPM1H-H153L dephosphorylated p27 at T187

B5: gst-PPM1J (protein)
chain: MLNRVRSAVAHLVSSGGAPPPRPKSPDLPNAASAPPAAAPEAPRSPPAKAGSGSATPAKAVEARASFSRPTFLQLSPGGLRRADDHAGRAVQSPPDTGRRLPWSTGYAEVINAGKSRHNEDQACCEVVYVEGRRSVTGVPREPSRGQGLCFYYWGLFDGHAGGGAAEMASRLLHRHIREQLKDLVEILQDPSPPPLCLPTTPGTPDSSDPSHLLGPQSCWSSQKEVSHESLVVGAVENAFQLMDEQMARERRGHQVEGGCCALVVIYLLGKVYVANAGDSRAIIVRNGEIIPMSREFTPETERQRLQLLGFLKPELLGSEFTHLEFPRRVLPKELGQRMLYRDQNMTGWAYKKIELEDLRFPLVCGEGKKARVMATIGVTRGLGDHSLKVCSSTLPIKPFLSCFPEVRVYDLTQYEHCPDDVLVLGTDGLWDVTTDCEVAATVDRVLSAYEPNDHSRYTALAQALVLGARGTPRDRGWRLPNNKLGSGDDISVFVIPLGGPGSYS
[2]
  dephosphorylation of p27 at S10 (phosphatase reaction, Western blot): Neither enzyme exhibited activity at S10
  dephosphorylation of p27 at T187 (phosphatase reaction, Western blot): only PPM1H was effective at dephosphorylating p27 at T187
